For 10 molecules, EC50 and Kd results are on record in US20250145711A1 (Janssen / Centocor, published 2025).

Where a chain is given by its changes, count along the chain named.

The target of assay [1] is T1, human PSMA on prostate cancer cell lines (22RV1, C4-2B) (human, UniProt Q04609 1-750).
T1 construct: also called PSMA-expressing cell lines
Nature of the assay: flow cytometry on C4-2B cells. Here is the method: (§1) 22RV1 and C4-2B cells were plated at 50,000 cells per well in 50 μl of assay medium (RPMI, 10% HI FBS) in V bottom plates. Serial dilutions of antibodies were prepared in assay medium with 50 μl of antibody dilutions added to the plates containing cells. The plates were incubated for 60 min at 37° C. at which time 100 μl of staining buffer (Becton Dickinson Cat #554657) was added to all wells of each plate. The plates were centrifuged at 300×G for 5 minutes and the medium was removed from the wells. 200 μl of staining buffer was added to all wells of each plate. The plates were centrifuged at 300× G for 5 minutes and the medium was removed from the wells. 50 μl of 2 μg/ml AlexaFluor647-labeled goat anti-human Fc was added to all wells of the plates and the plates were incubated for 30 minutes at 4° C. 150 μl of staining buffer was added to all wells of each plate. The plates were centrifuged at 300× G for 5 minutes and the medium was removed from the wells.
For orientation: A flow cytometer gives signals particle by particle.

Assay [2] deals with T1, human PSMA on prostate cancer cell …. The experiment in a line: flow cytometry on 22RV1 cells. As to the method:
as §1

A further assay addresses T2, recombinant human PSMA (human, UniProt Q04609 44-750).
T2 construct: also called hu PSMA; prostate-specific membrane antigen
The experiment in a line: SPR (Biacore 8K), antibody captured on anti-Fc, PSMA in solution. Here is the method:
The binding affinity of anti-PSMA to the recombinant human, cynomolgus or mouse PSMA was determined by surface plasmon resonance (SPR) using a Biacore 8K instrument\. […] The association and dissociation were monitored for 3 and 15 minutes, respectively, using a flow rate of 50 μL/min. Raw binding data was referenced by subtracting the analyte binding signals from blanks and analyzed using a 1:1 Langmuir binding model using the Biacore Insight evaluation software to obtain the kinetics which were used to calculate the binding affinity. The anti-PSMA were captured using an anti-human Fc antibody and the antigens were injected in solution.
Background: SPR reads the build-up and loss of mass on a sensor chip optically.

T2 sequence (Q04609 44-750 limits assumed): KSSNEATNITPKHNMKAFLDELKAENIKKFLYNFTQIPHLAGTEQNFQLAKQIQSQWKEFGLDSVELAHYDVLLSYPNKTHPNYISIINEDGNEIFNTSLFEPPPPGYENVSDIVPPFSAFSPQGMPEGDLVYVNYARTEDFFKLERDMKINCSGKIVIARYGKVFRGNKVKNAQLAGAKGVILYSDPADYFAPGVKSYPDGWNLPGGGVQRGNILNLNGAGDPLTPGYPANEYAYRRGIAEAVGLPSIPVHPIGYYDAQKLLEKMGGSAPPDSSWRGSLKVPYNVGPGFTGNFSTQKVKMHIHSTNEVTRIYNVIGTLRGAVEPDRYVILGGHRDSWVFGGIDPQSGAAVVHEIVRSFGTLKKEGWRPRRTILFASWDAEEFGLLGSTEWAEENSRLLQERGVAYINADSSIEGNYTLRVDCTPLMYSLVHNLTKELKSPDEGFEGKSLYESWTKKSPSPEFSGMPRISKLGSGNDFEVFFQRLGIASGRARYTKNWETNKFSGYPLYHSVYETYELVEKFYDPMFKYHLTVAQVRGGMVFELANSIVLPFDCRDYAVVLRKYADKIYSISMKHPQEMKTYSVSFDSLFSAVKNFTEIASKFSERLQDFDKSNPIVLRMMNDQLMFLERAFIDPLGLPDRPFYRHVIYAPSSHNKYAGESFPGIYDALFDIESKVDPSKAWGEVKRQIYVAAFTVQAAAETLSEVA
T1 sequence (Q04609 whole entry): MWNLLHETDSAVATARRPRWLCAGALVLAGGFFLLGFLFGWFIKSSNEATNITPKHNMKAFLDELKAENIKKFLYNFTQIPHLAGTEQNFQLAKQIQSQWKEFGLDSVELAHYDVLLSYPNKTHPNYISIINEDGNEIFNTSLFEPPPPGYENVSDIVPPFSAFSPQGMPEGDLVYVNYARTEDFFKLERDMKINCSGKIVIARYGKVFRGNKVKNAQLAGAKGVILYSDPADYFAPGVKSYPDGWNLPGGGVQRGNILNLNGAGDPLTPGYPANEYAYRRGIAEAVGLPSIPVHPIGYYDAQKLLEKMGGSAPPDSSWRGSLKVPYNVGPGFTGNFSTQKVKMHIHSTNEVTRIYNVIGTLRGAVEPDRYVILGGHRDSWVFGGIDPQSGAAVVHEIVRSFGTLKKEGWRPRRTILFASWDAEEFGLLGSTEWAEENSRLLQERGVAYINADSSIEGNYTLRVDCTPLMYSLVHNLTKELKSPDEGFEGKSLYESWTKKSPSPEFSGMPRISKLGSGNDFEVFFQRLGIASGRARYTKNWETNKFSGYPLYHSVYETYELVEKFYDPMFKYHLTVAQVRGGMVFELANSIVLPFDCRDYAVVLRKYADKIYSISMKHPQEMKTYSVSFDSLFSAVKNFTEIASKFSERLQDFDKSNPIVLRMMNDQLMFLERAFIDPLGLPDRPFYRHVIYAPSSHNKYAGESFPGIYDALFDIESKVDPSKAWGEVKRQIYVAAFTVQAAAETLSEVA

B1: PS3B926 (bispecific antibody, human IgG1, kappa, lambda, L234A L235A)
heavy 1: EVQLVESGGGLVKPGGSLRLSCAASGFTFSRYNMNWVRQAPGKGLEWVSSISTSSNYIYYADSVKGRFTFSRDNAKNSLDLQMSGLRAEDTAIYYCTRGWGPFDYWGQGTLVTVSSASTKGPSVFPLAPSSKSTSGGTAALGCLVKDYFPEPVTVSWNSGALTSGVHTFPAVLQSSGLYSLSSVVTVPSSSLGTQTYICNVNHKPSNTKVDKKVEPKSCDKTHTCPPCPAPEAAGGPSVFLFPPKPKDTLMISRTPEVTCVVVSVSHEDPEVKFNWYVDGVEVHNAKTKPREEQYNSTYRVVSVLTVLHQDWLNGKEYKCKVSNKALPAPIEKTISKAKGQPREPQVYTLPPSREEMTKNQVSLTCLVKGFYPSDIAVEWESNGQPENNYKTTPPVLDSDGSFLLYSKLTVDKSRWQQGNVFSCSVMHEALHNHYTQKSLSLSP
light 1: DIQMTQSPSSLSASVGDRVTITCRARQSIGTAIHWYQQKPGKAPKLLIKYASESISGVPSRFSGSGSGTDFTLTISSLQPEDFATYYCQQSGSWPYTFGQGTKLEIKRTVAAPSVFIFPPSDEQLKSGTASVVCLLNNFYPREAKVQWKVDNALQSGNSQESVTEQDSKDSTYSLSSTLTLSKADYEKHKVYACEVTHQGLSSPVTKSFNRGEC
heavy 2: not shown
light 2: not shown
notes: FAB-A: CD3B2183 (CD3W245); FAB-B: PSMB891
For orientation: EC50 means the midpoint of the concentration-response curve. Read a high EC50 as weaker potency. What is called Kd is a measure of binding affinity in units of concentration. Regarding B1, the values for the EC50 in assay [1] and in assay [2] were 4.55 nM and 2.9 nM, respectively. The Kd with recombinant human PSMA was no more than 0.253 nM.

B2: PS3B932 (bispecific antibody, human IgG1, kappa, lambda, L234A L235A)
heavy 1: B1 heavy 1
light 1: B1 light 1
heavy 2: EVQLVESGGGLVQPGGSLRLSCAASGFTFSSYAMSWVRQAPGKGLEWVSAISGGIGSTYYADSVKGRFTISRDNSKNTLWLQMNSLRAEDTAVYYCAKDGVGATPYYFDYWGQGTLVTVSSASTKGPSVFPLAPSSKSTSGGTAALGCLVKDYFPEPVTVSWNSGALTSGVHTFPAVLQSSGLYSLSSVVTVPSSSLGTQTYICNVNHKPSNTKVDKKVEPKSCDKTHTCPPCPAPEAAGGPSVFLFPPKPKDTLMISRTPEVTCVVVSVSHEDPEVKFNWYVDGVEVHNAKTKPREEQYNSTYRVVSVLTVLHQDWLNGKEYKCKVSNKALPAPIEKTISKAKGQPREPQVYTLPPSREEMTKNQVSLTCLVKGFYPSDIAVEWESNGQPENNYKTTPPVLDSDGSFFLYSRLTVDKSRWQQGNVFSCSVMHEALHNHYTQKSLSLSPG
light 2: QSVLTQPPSVSAAPGQKVTISCSGSSSNIGNNYVSWYQQLPGTAPKLLIYDNNKRPSGIPDRFSGSKSGTSATLGITGLQTGDEADYYCGTWDSSLSAYVFGTGTKVTVLGQPKAAPSVTLFPPSSEELQANKATLVCLISDFYPGAVTVAWKADSSPVKAGVETTTPSKQSNNKYAASSYLSLTPEQWKSHRSYSCQVTHEGSTVEKTVAPTECS
notes: FAB-A: CD3B2183 (CD3W245); FAB-B: PSMB895
With B2, the EC50 came out at 60 nM in assay [1] and 48.7 nM in assay [2]. For the same molecule, the Kd with recombinant human PSMA was 0.787 nM.

B3: PS3B928 (bispecific antibody, human IgG1, kappa, lambda, L234A L235A)
heavy 1: B1 heavy 1
light 1: B1 light 1
heavy 2: not shown
light 2: not shown
notes: FAB-A: CD3B2183 (CD3W245); FAB-B: PSMB892
B3: the EC50 in assay [1] and in assay [2] was 60 nM in each case. Also, in the assay with recombinant human PSMA, the Kd came out at 2.37 nM.

B4: PS3B925 (bispecific antibody, human IgG1, kappa, lambda, L234A L235A)
heavy 1: B1 heavy 1
light 1: B1 light 1
heavy 2: B2 heavy 2 with A23T, T28I, I55Y, S57A, T58P, S63T, W80Y, Y110D, T115I
light 2: B2 light 2 with Y50F
notes: FAB-A: CD3B2183 (CD3W245); FAB-B: PSMB899
Turning to B4, the EC50 was 11.7 nM in assay [1] and 21.2 nM in assay [2]. The Kd with recombinant human PSMA came to 0.169 nM.

B5: PS3B915 (bispecific antibody, human IgG1, lambda, L234A L235A)
heavy 1: QVQLQQSGPRLVRPSQTLSLTCAISGDSVFNNNAAWSWIRQSPSRGLEWLGRTYYRSKWLYDYAVSVKSRITVNPDTSRNQFTLQLNSVTPEDTALYYCARGYSSSFDYWGQGTLVTVSSASTKGPSVFPLAPSSKSTSGGTAALGCLVKDYFPEPVTVSWNSGALTSGVHTFPAVLQSSGLYSLSSVVTVPSSSLGTQTYICNVNHKPSNTKVDKKVEPKSCDKTHTCPPCPAPEAAGGPSVFLFPPKPKDTLMISRTPEVTCVVVSVSHEDPEVKFNWYVDGVEVHNAKTKPREEQYNSTYRVVSVLTVLHQDWLNGKEYKCKVSNKALPAPIEKTISKAKGQPREPQVYTLPPSREEMTKNQVSLTCLVKGFYPSDIAVEWESNGQPENNYKTTPPVLDSDGSFLLYSKLTVDKSRWQQGNVFSCSVMHEALHNHYTQKSLSLSPG
light 1: QSALTQPASVSGSPGQSITISCTGTSSNIGTYKFVSWYQQHPDKAPKVLLYEVSKRPSGVSSRFSGSKSGNTASLTISGLQAEDQADYHCVSYAGSGTLLFGGGTKLTVLGQPKAAPSVTLFPPSSEELQANKATLVCLISDFYPGAVTVAWKADSSPVKAGVETTTPSKQSNNKYAASSYLSLTPEQWKSHRSYSCQVTHEGSTVEKTVAPTECS
heavy 2: not shown
light 2: not shown
notes: FAB-A: CD3B891 (CD3B376 - K477); FAB-B: PSMB892
Take B5: the EC50 in assay [1] and in assay [2] was 60 nM each time. For the same molecule, the Kd in the assay with recombinant human PSMA worked out at 1.89 nM.

B6: PS3B919 (bispecific antibody, human IgG1, lambda, L234A L235A)
heavy 1: B5 heavy 1
light 1: B5 light 1
heavy 2: B2 heavy 2
light 2: B2 light 2
notes: FAB-A: CD3B891 (CD3B376 - K477); FAB-B: PSMB895
Consider B6, for which the EC50 in assay [1] was 23.3 nM; in assay [2] it was 24.9 nM. Besides, the Kd with recombinant human PSMA turned out to be 0.823 nM.

B7: PS3B920 (bispecific antibody, human IgG1, lambda, L234A L235A)
heavy 1: B5 heavy 1
light 1: B5 light 1
heavy 2: B2 heavy 2 with I55S, W80Y, T91S
light 2: B2 light 2
notes: FAB-A: CD3B891 (CD3B376 - K477); FAB-B: PSMB897
On to B7, for which the half-maximal effective concentration (EC50) in assay [1] and in assay [2] was 60 nM throughout. Also, the Kd in the assay with recombinant human PSMA came out at 1.35 nM.

B8: PS3B922 (bispecific antibody, human IgG1, lambda, L234A L235A)
heavy 1: B5 heavy 1
light 1: B5 light 1
heavy 2: B2 heavy 2 with I55S, W80Y, T91S
light 2: B2 light 2 with N31I, Y99V, T103G, V107L
notes: FAB-A: CD3B891 (CD3B376 - K477); FAB-B: PSMB898
Turning to B8, the values for the EC50 in assay [1] and in assay [2] were 44.1 nM and 34.7 nM, respectively. Moreover, the Kd in the assay with recombinant human PSMA worked out at 0.41 nM.

B9: PS3B912 (bispecific antibody, human IgG1, lambda, L234A L235A)
heavy 1: B5 heavy 1
light 1: B5 light 1
heavy 2: B2 heavy 2 with A23T, T28I, I55Y, S57A, T58P, S63T, W80Y, Y110D, T115I
light 2: B2 light 2 with Y50F
notes: FAB-A: CD3B891 (CD3B376 - K477); FAB-B: PSMB899
B9: the EC50 in assay [1] was determined as 36.8 nM; in assay [2] it was 54 nM. Besides, the Kd with recombinant human PSMA turned out to be 0.174 nM.

B10: PS3B921 (bispecific antibody, human IgG1, lambda, L234A L235A)
heavy 1: B5 heavy 1
light 1: B5 light 1
heavy 2: B2 heavy 2
light 2: B2 light 2 with N31I, Y99V, T103G, V107L
notes: FAB-A: CD3B891 (CD3B376 - K477); FAB-B: PSMB896
In the case of B10, the EC50 came to 6.44 nM in assay [1] and 4.03 nM in assay [2]. In addition, in the assay with recombinant human PSMA, the Kd is no more than 0.0864 nM.
